Assay [1] has as its target HLA-B*44:02. Briefly: IEDB peptide-MHC binding, purified MHC/competitive/radioactivity; filed as Kd, often an IC50 or EC50 that approximates it; ≥ and ≤ were set here for values at or beyond the usual limits of such assays.
The target in assay [2] is HLA-B*40:01. Described as above.
Assay [3] concerns the target HLA-B*44:03. Described as above.
Assay [4] deals with HLA-B*15:01. The assay is described as above.
Assay [5] addresses HLA-A*30:02. The description is as above.
Assay [6] concerns the target HLA-B*58:01. Briefly: IEDB peptide-MHC binding, purified MHC/direct/fluorescence; filed as Kd, often an IC50 or EC50 that approximates it; ≥ and ≤ were set here for values at or beyond the usual limits of such assays.
Assay [7] has as its target HLA-B*57:01. The assay is described as above.
Assay [8] addresses HLA-A*32:01. Briefly: IEDB peptide-MHC binding, purified MHC/competitive/radioactivity; filed as Kd, often an IC50 or EC50 that approximates it; ≥ and ≤ were set here for values at or beyond the usual limits of such assays. The note with it: source organism: Dengue virus 3 Martinique/1243/1999.
Assay [9] addresses HLA-B*46:01. Briefly: IEDB peptide-MHC binding, purified MHC/direct/fluorescence; filed as Kd, often an IC50 or EC50 that approximates it; ≥ and ≤ were set here for values at or beyond the usual limits of such assays.
The target in assay [10] is HLA-B*18:01. Described as above. The note with it: source organism: Francisella tularensis subsp. holarctica LVS.
For assay [11], the target named is HLA-B*40:01. Described as above. The note with it: source organism: Francisella tularensis subsp. holarctica LVS.
Assay [12] addresses HLA-A*23:01. Briefly: IEDB peptide-MHC binding, purified MHC/competitive/radioactivity; filed as Kd, often an IC50 or EC50 that approximates it; ≥ and ≤ were set here for values at or beyond the usual limits of such assays. The note with it: source organism: Dengue virus 2 Jamaica/1409/1983.
The target of assay [13] is HLA-A*24:02. The assay is described as above. The note with it: source organism: Dengue virus 2 Jamaica/1409/1983.
For assay [14], the target named is HLA-B*15:01. Briefly: IEDB peptide-MHC binding, purified MHC/direct/fluorescence; filed as Kd, often an IC50 or EC50 that approximates it; ≥ and ≤ were set here for values at or beyond the usual limits of such assays. The note with it: source organism: Mammarenavirus lassaense.
The target of assay [15] is HLA-A*01:01. Briefly: IEDB peptide-MHC binding, purified MHC/competitive/radioactivity; filed as Kd, often an IC50 or EC50 that approximates it; ≥ and ≤ were set here for values at or beyond the usual limits of such assays. The note with it: source organism: Dengue virus 4 Philippines/H241/1956.
The mark [16] stands for this setting: source organism: Dengue virus 3 Martinique/1243/1999.
Setting [17] is: source organism: Dengue virus 4 Philippines/H241/1956.
[18] abbreviates: source organism: Vaccinia virus WR.
[19] abbreviates: source organism: Dengue virus 1 Brazil/97-11/1997.
Where [20] appears, read: source organism: Yersinia pestis Antiqua.
Setting [21] is: source organism: Vaccinia virus Copenhagen.
Setting [22] is: source organism: Dengue virus 2 Jamaica/1409/1983.
Setting [23] is: source organism: Dengue virus 4 Dominica/814669/1981.
Where [24] appears, read: source organism: Dengue virus 1 Singapore/S275/1990.
[25] abbreviates: source organism: Bacillus mycoides.

Some results are limits rather than exact numbers.

In the case of GESSPSPTV, the Kd – broadly, the equilibrium constant for the complex coming apart – in assay [1] (setting [16]) came out at 744 nM; in [2] (setting [16]), 9.6 nM. For SETFSMGLLC, the equilibrium dissociation constant (Kd) in [3] (setting [17]) was 82.9 nM.

KEEESEGAIW: the Kd worked out at 90.9 nM in assay [3] (setting [16]) and 58.4 nM in assay [1] (setting [16]). Consider KAYLYTEYF, for which, in assay [4] (setting [18]), the Kd worked out at 7.64 nM. With NEMGLLETT, the Kd in assay [3] (setting [19]) worked out at 8030 nM. Take SLVMLLVHY: the results for the dissociation constant (Kd) in [4] (setting [17]) and in assay [5] (setting [17]) were 419 nM and 1600 nM, respectively. On to AETQHGTVL, for which the Kd in assay [3] (setting [19]) was 52.7 nM; in assay [2] (setting [19]) it was 0.32 nM. Regarding KEISSMLNI, the dissociation constant Kd in assay [3] (setting [19]) was 76.6 nM; in assay [1] (setting [19]), 38.9 nM; in assay [2] (setting [19]), 262 nM. For MANICWIYY, the Kd in assay [6] (setting [20]) was found to be 43.3 nM; in assay [7] (setting [20]), 256 nM. Regarding SQHNHRPGY, the Kd in [4] (setting [16]) is 91.2 nM; in [5] (setting [16]), 28.7 nM.

On to GEVGAIALDF, for which the results for the Kd in [3] (setting [19]) and in assay [1] (setting [19]) were 23.5 nM and 21.5 nM, respectively. Regarding FIRMLILNF, the Kd in assay [4] (setting [21]) came to 7450 nM. With KLITQFETY, the Kd in assay [4] (setting [16]) is 20.2 nM; in assay [5] (setting [16]), 7780 nM; in assay [8] it was 202 nM.

As for IMMLKLLTDF, the equilibrium dissociation constant (Kd) in assay [4] (source organism: Dengue virus 1 Nauru/West Pac/1974) came out at 18.8 nM. With RQEKGKSLLF, the dissociation constant (Kd) in assay [4] (setting [22]) was 42.3 nM. For the sequence ISKTSIACF, in assay [4] (setting [21]), the dissociation constant (Kd) was 10800 nM. SQEAEFTGY gave a Kd in [9] (source organism: Yellow fever virus) of at least 20000 nM.

Take EEESEGAIW: the equilibrium dissociation constant (Kd) is 67.7 nM in [3] (setting [16]) and 33.7 nM in assay [1] (setting [16]). For the sequence KIRCEITSF, in assay [4] (setting [18]), the Kd was 4.28 nM. In the case of LETLMLVAL, the Kd in [1] (setting [17]) was determined as 1100 nM; in assay [2] (setting [17]) it was 3.49 nM. For the sequence SEIRWEESF, the Kd in assay [4] (setting [18]) came out at 46.9 nM. In the case of MELIDGISL, the equilibrium dissociation constant (Kd) amounted to 226 nM in assay [3] (setting [23]), 375 nM in assay [1] (setting [23]) and 2.29 nM in [2] (setting [23]). Turning to MEIRPVKEK, the dissociation constant Kd in assay [3] (setting [19]) is 1010 nM; in [1] (setting [19]) it was 640 nM.

With REIPERSWNT, the Kd in [2] (setting [17]) stood at 1480 nM. Turning to KEISNMLNIM, the Kd in [2] (setting [24]) turned out to be 8.34 nM. HEHKSTWHY: the Kd in assay [3] (setting [24]) was found to be 9.11 nM; in assay [1] (setting [24]), 19.8 nM.

Take VEIGLGMPF: the results for the equilibrium dissociation constant (Kd) in [10] and in assay [11] were at most 1 nM and 16.8 nM, respectively.

As to RIIPKNNHA, the Kd in [4] (setting [18]) is 444 nM.

As to RQRTPQDNQL, in [4] (setting [19]), the dissociation constant Kd was 112 nM. As for IQKETLVTF, the values for the Kd in assay [4] (setting [22]), in assay [12] and in assay [13] were 1.61 nM, 40.5 nM and 1560 nM, respectively. In the case of FSHDHIGHG, the dissociation constant Kd in assay [4] (setting [18]) worked out at 31.9 nM. Regarding LEFFLIVLL, the Kd in assay [3] (setting [22]) amounted to 17600 nM; in assay [2] (setting [22]), 123 nM. As for IMGIPYCNY, the Kd in assay [14] is 43 nM; in assay [9] (source organism: Mammarenavirus lassaense), at least 20000 nM. Turning to GAIDLCRHF, in [4] (setting [18]), the Kd worked out at 117 nM. On to ITFQSILGY, for which the results for the Kd in assay [6] (setting [25]) and in [7] (setting [25]) were 57.3 nM and 70.7 nM, respectively.

Turning to KEYCVECYM, in assay [4] (setting [18]), the dissociation constant Kd came out at 4620 nM. For the sequence MEKASFIEV, the Kd in assay [1] (setting [22]) worked out at 320 nM; in [2] (setting [22]), 1210 nM. In the case of KEGDQYVYM, the Kd in assay [2] (setting [19]) is 397 nM. In turn, YQPEREKVY had a dissociation constant Kd in assay [9] (source organism: West Nile virus) of at least 20000 nM.

On to YNNFYFYSF, for which, in [4] (setting [18]), the equilibrium dissociation constant (Kd) was 1460 nM. For ASLVMLLVHY, the Kd was 1830 nM in assay [15], at least 70100 nM in [3] (setting [17]) and 1900 nM in [5] (setting [17]). In the case of VEDERFWDL, the Kd in assay [2] (setting [19]) stood at 155 nM.
